Assay results from patent US6458539, “Photoselection of nucleic acid ligands” (Somalogic, Inc.).

Columns and labels:
[1] = target: PDGF (platelet derived growth factor) (UniProt P01127); experiment: filter; conditions: 5-bromo-2'-deoxyuridine (BrdU) substituted for T
[2] = target: PDGF (platelet derived growth factor) (UniProt P01127); conditions: 5-bromo-2'-deoxyuridine (BrdU) substituted for T; photocrosslinking rate, 308 nm
[3] = target: T1, bFGF(155) (basic fibroblast growth factor, FGF2) (Homo sapiens, UniProt P09038 SEQ:1-155); experiment: filter; 1xPBS, 2 mM MgCl2, 0.01% HSA, 1 mM DTT, 37 C; Table 7 gives a different KD of 1.3e-10 M; conditions: tags: expressed in E. coli; Bachem California lot SN 433; label: 5'-32P
T1 sequence (P09038 134-288): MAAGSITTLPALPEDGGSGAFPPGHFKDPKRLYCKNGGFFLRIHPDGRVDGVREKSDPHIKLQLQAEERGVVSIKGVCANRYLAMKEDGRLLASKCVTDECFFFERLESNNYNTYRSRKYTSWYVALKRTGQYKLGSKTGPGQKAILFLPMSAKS
Method: (§1) Nitrocellulose filter binding was used to assess ligand affinity for bFGF_{(155)}. This was accomplished by first preparing 2,000 cpm/30 μL of 5'-^32P-radiolabeled material (≈1–5 fmol) of each sequence by dilution with 1×crosslink binding buffer (XLBB) (1×PBS/2 mM MgCl_2/0.01% HSA/1.0 mM dithiothreitol (DTT)) to give 2×DNA. Each 2×oligonucleotide sample was mixed with 30 μL of each bFGF_{(155)} concentration to be evaluated in a 96 well tray. bFGF_{(155)} concentrations were prepared by serial dilution with 1×XLBB. After incubation at 37° C. for 15 minutes, a multi-pipeter was used to load 40 μL of each DNA/bFGF_{(155)} mixture onto a pre-washed Gibco nitrocellulose binding curve apparatus followed by washing with a dissociation wash buffer. Bound DNA was then measured by phosphorimage and a binding curve for the percent bound DNA vs. [bFGF] was calculated by Kaleidograph ver. 3.09 software (Synergy Software Co., Reading, Pa).

[4] = target: VEGF (vascular endothelial growth factor) (UniProt P15692-4 P15692-4:27-191); experiment: filter; 1xPBS, 2 mM MgCl2, 37 C; conditions: tags: R&D Systems; chain copies: 2; label: 5'-32P
Chain of VEGF (vascular endothelial growth factor) (P15692 other isoform, or with tags, fused parts or gaps): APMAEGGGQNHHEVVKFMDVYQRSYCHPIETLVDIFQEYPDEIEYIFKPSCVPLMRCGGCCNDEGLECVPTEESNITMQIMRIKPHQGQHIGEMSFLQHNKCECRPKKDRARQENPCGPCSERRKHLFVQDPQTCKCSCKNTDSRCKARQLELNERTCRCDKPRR

[5] = target: T1, bFGF(155) (basic fibroblast growth …); experiment: filter; 1xPBS, 2 mM MgCl2, 0.01% HSA, 1 mM DTT, 37 C; Table 7 gives a different KD of 5.3e-9 M; Table 2 prints CACCC where SEQ 70 has CAGCC; conditions: tags: expressed in E. coli; Bachem California lot SN 433; label: 5'-32P
Method: as §1

Chain of PDGF (platelet derived growth factor) (P01127 82-190): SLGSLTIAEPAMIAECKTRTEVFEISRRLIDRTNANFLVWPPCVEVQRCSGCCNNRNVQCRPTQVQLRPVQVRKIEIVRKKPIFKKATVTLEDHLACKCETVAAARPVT

Molecule: GGGAGGACGATGCGGGCGAAGGCACACCGAGTTCATAGTATCCCACAGACGACGAGCGGGA [06.15]
- Kd ([1]; 1500-fold weaker than bFGF (Table 6), Table 3 states relative KD >1000): 200 nM
- activity [2]: 65000 M⁻¹ s⁻¹

Molecule: GGGAGGACGATGCGGTGACGTAAGAGTGTAATCGATGCAGCCTGGCAGACGACGAGCGGGA [06.50]
- Kd ([1]; 53-fold weaker than bFGF): 280 nM
- activity [2]: 61000 M⁻¹ s⁻¹

B1: 06.15 (ssDNA)
DNA: GGGAGGACGATGCGGGCGAAGGCACACCGAGTTCATAGTATCCCACAGACGACGAGCGGGA
modifications: 5-bromo-2'-deoxyuridine (BrdU) substituted for T
- Kd [3]: 0.016 nM
- binding signal [4]: > 1000 fold KD relative to bFGF

B2: 06.50 (ssDNA)
DNA: GGGAGGACGATGCGGTGACGTAAGAGTGTAATCGATGCAGCCTGGCAGACGACGAGCGGGA
modifications: 5-bromo-2'-deoxyuridine (BrdU) substituted for T
- Kd [5]: 0.56 nM
